Measurements published in article PMC9356133, “Regulatory mechanisms of lipopolysaccharide synthesis in Escherichia coli” (Nature Communications, 2022).

B1: LpxC labeled with Atto488 (enzyme, Escherichia coli strain CFT073, UniProt P0A725 1-305, looked up)
chain: MIKQRTLKRIVQATGVGLHTGKKVTLTLRPAPANTGVIYRRTDLNPPVDFPADAKSVRDTMLCTCLVNEHDVRISTVEHLNAALAGLGIDNIVIEVNAPEIPIMDGSAAPFVYLLLDAGIDELNCAKKFVRIKETVRVEDGDKWAEFKPYNGFSLDFTIDFNHPAIDSSNQRYAMNFSADAFMRQISRARTFGFMRDIEYLQSRGLCLGGSFDCAIVVDDYRVLNEDGLRFEDEFVRHKMLDAIGDLFMCGHNIIGAFTAYKSGHALNNKLLQAVLAKQEAWEYVTFQDDAELPLAFKAPSAVLA
modifications: Atto488 dye (Atto488 protein labeling kit, protein to dye ratio of 6:1)
notes: LpxC, amplified from Escherichia coli strain CFT073 genomic DNA; His tag removed by 3C protease; also called LpxC-Atto488; source: E. coli BL21 Star (DE3) pLysS, purified (Ni-NTA, 3C cleavage, gel filtration), labeled with Atto488; not shown: His tag, N-terminal, cleaved
B2: LapB cytoplasmic domain (LapB_(cyto)) (domain or fragment, Escherichia coli strain CFT073, UniProt P0AB58 21-389, looked up)
chain: RRSAQQNKQDEANRLSRDYVAGVNFLLSNQQDKAVDLFLDMLKEDTGTVEAHLTLGNLFRSRGEVDRAIRIHQTLMESASLTYEQRLLAIQQLGRDYMAAGLYDRAEDMFNQLTDETDFRIGALQQLLQIYQATSEWQKAIDVAERLVKLGKDKQRVEIAHFYCELALQHMASDDLDRAMTLLKKGAAADKNSARVSIMMGRVFMAKGEYAKAVESLQRVISQDRELVSETLEMLQTCYQQLGKTAEWAEFLQRAVEENTGADAELMLADIIEARDGSEAAQVYITRQLQRHPTMRVFHKLMDYHLNEAEEGRAKESLMVLRDMVGEKVRSKPRYRCQKCGFTAYTLYWHCPSCRAWSTIKPIRGLDGL

Key:
[1] = target: B2; test: inhibition of a protease assay (Kd calculated from the IC50); 0.06 μM FtsH/LapB complex on POPC liposomes, 1.8 μM LpxC-Atto488, 0-12.96 μM LapB_(cyto) in solution, 37 °C, 20 min; Kd = (IC50 – 2KM/3)/2; conditions: both partners purified
[2] = target: FtsH (non-tagged) (Escherichia coli strain CFT073, UniProt P0AAI3 1-644); test: cell-based or functional assay
Sequence of FtsH (non-tagged) (P0AAI3 whole entry): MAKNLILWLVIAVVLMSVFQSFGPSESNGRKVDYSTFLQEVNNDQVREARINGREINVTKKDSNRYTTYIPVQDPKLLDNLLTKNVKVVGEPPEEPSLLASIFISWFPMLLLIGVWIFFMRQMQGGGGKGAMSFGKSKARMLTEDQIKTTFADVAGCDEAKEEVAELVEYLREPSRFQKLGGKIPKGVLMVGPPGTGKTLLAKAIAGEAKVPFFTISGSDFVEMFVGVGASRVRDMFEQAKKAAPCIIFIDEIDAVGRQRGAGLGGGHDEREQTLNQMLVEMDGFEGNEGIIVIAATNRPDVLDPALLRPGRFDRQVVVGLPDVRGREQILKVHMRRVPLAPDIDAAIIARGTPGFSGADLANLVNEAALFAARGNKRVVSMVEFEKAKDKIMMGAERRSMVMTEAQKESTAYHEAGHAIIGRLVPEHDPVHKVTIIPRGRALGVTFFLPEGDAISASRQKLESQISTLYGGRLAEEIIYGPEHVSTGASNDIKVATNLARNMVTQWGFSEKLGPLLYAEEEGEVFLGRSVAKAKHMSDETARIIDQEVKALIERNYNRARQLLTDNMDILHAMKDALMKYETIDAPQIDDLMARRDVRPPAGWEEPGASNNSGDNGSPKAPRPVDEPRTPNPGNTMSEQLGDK

[3] = target: B1; test: cell-based or functional assay

| Binder | Kd [1] [µM] | fold reduction by LapB of the KM for LpxC degradation by FtsH proteoliposomes [2] [fold] | IC50 of inhibition of LpxC-Atto488 degradation by FtsH/LapB proteoliposomes (0-12.96 μM LapB_(cyto)) [3] [µM] |
| --- | --- | --- | --- |
| B1 | 1.34 | ~8 | – |
| B2 | – | – | 3.96 |
